Source: patent US20210130474A1 (DRAGONFLY THERAPEUTICS, published 2021)
Numbering of substitutions follows the chain as printed. Blank lines part the entries; values can stand above or below the binder they belong to.

Assays:
[1] = molecular target: T1, CAIX expressed on human renal cell carcinoma line A498 (human, UniProt Q16790 38-459); experiment: cell-based or functional assay
[2] = molecular target: T1, CAIX expressed on human renal cell …; experiment: flow cytometry on A498 cells, MFI fold over background
Text: Human renal cell carcinoma line A498 expressing CAIX was used to assay the binding of TriNKETs to the tumor associated antigen CAIX.

B1: A49-TriNKET-CAIX (ADI-27749 and a CAIX-binding domain) (bispecific antibody, V domains shown)
VH 1: EVQLVESGGGLVKPGGSLRLSCAASGFTFSSYSMNWVRQAPGKGLEWVSSISSSSSYIYYADSVKGRFTISRDNAKNSLYLQMNSLRAEDTAVYYCARGAPMGAAAGWFDPWGQGTLVTVSS
VL 1: DIQMTQSPSSVSASVGDRVTITCRASQGISSWLAWYQQKPGKAPKLLIYAASSLQSGVPSRFSGSGSGTDFTLTISSLQPEDFATYYCQQGVSFPRTFGGGTKVEIK
VH 2: QVELVESGGGLVQPGGSLRLSCAASGFTFSSYGMSWVRQAPGKGLEWVSGISSLGSTTYYADSVKGRFTISRDNSKNTLYLQMNSLRAEDTAVYYCARTGSPGTFMHGDHWGQGTLVTVSS
VL 2: DIQMTQSPSSLSASVGDRVTITCRASQDINNYLSWYQQKPGKAPKLLIYGASNLQSGVPSRFSGSGSGTDFTLTISSLQPEDFAVYYCQQYYGRPTTFGQGTKVEIK
specific lysis of A498 target cells by rested KHYG-1 cells (DELFIA cytotoxicity assay), increase over co-culture without TriNKET [1]: ~20%

binding result [2]: binds
B2: F47-TriNKET-CAIX (ADI-29447 and a CAIX-binding domain) (bispecific antibody, V domains shown)
VH 1: QVQLQQWGAGLLKPSETLSLTCAVYGGSFSGYYWSWIRQPPGKGLEWIGEIDHSGSTNYNPSLKSRVTISVDTSKNQFSLKLSSVTAADTAVYYCARARGPWSFDPWGQGTLVTVSS
VL 1: DIQMTQSPSTLSASVGDRVTITCRASQSISSWLAWYQQKPGKAPKLLIYKASSLESGVPSRFSGSGSGTEFTLTISSLQPDDFATYYCQQYDTFITFGGGTKVEIK
VH 2: B1 VH 2
VL 2: B1 VL 2

B3: A44-TriNKET-CAIX (ADI-27744 and a CAIX-binding domain) (bispecific antibody, V domains shown)
VH 1: not shown
VL 1: B1 VL 1 with S30D, F94Y
VH 2: B1 VH 2
VL 2: B1 VL 2
specific lysis of A498 target cells by rested KHYG-1 cells (DELFIA cytotoxicity assay), increase over co-culture without TriNKET [1]: ~20%

B4: E79-TriNKET-CAIX (ADI-29379 and a CAIX-binding domain) (bispecific antibody, V domains shown)
VH 1: QVQLVQSGAEVKKPGASVKVSCKASGYTFTSYYMHWVRQAPGQGLEWMGIINPSGGSTSYAQKFQGRVTMTRDTSTSTVYMELSSLRSEDTAVYYCARGAPNYGDTTHDYYYMDVWGKGTTVTVSS
VL 1: EIVMTQSPATLSVSPGERATLSCRASQSVSSNLAWYQQKPGQAPRLLIYGASTRATGIPARFSGSGSGTEFTLTISSLQSEDFAVYYCQQYDDWPFTFGGGTKVEIK
VH 2: B1 VH 2
VL 2: B1 VL 2
specific lysis of A498 target cells by rested KHYG-1 cells (DELFIA cytotoxicity assay), increase over co-culture without TriNKET [1]: ~20%
